Results published in the nanobody polyreactivity screen of Harvey et al. (2022).

Assay: yeast display, Sf9 membrane polyspecificity reagent, FACS + sequencing; frameworks hold sequencing errors
Summary of the method: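 Synthetic nanobody libraries on Saccharomyces cerevisiae BJ5465 were galactose-induced for 36–48 hours, stained 1 hour at 4 °C with 10% biotinylated, detergent-solubilized Sf9 membrane reagent and enriched on streptavidin microbeads. FACS then separated cells into low and high (top ~1%) gates by anti-HA (expression) and streptavidin (reagent binding) fluorescence. Genes were colony-PCR amplified, MiSeq 2 × 250 sequenced and CDR-length filtered. A clone's polyreactivity label is that of its gate of origin.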

Sequence | polyreactivity (PSR sort gate)
QVQLVESGGGLVQAGGSLRLSCAPSGSIFPSNVMGWYRQAPGKERELVAAISNTGSTNYADSVKGRFTISRDNAKNTVYLQMNSLKPEDTAVYYCNGDASYGFWSLLDYDYWGQATQVTVSS | low polyreactivity
QVQLVESGGGLVQAGGSLRLSCAASGLIFLGNAMGWYRQAPGKERELVAAISRSGGTTYYADSVKGRFTISRDNEKNTVYLQMNSLKPEDTAVYYCNAYNPYYRATVSSRGYGYWGQGTQVTVSS | high polyreactivity
QVQLEESGAGLVQAGGSLRLCCAASGNTFSSNAMGLYTQAPGKEMELVAGITKSGGRTYYADSVKGRFTISRDNAQYTVYLHMNSLKPEDSAVFYCNRRAGPFSIQYYYWGQVTQVTVSS | high polyreactivity
QVQLVESGGGLVQAGGSLRLSCAASGSTFYNYAMGWYRQAPGKERELVAAISSGGGITYYADSVKGRFTISRDNAKNTVYLQMNSLKPEDTAVYYCNARRKYLGYNYWGQGSQVTVSS | high polyreactivity
QVQLVVSGGGLVQAGGSLRLSCAASGSIFRFYTMGWYRQAPGKERELVAAISASGGNTYYADSVKGRFTISRDNAKNTVYLQMNSLKPEDTAVYYCARVKFTKYDYWGQGTQVTVSS | high polyreactivity
QVQLVESGGVLVQAGGSLRLSCAASGSTFSWYAMGWYRQAPGKERELFAGITRSDGSTYYADSVKGRFTNSRDNAKNNVYLQMNSLKPEDTAVYYCAADDYIIRYGTNVDYWGQGTQVTVSS | low polyreactivity
QVQLVESGGGLVHAGGSLRLSCAASGRISSSYAMGWYRQAPGKERELVAAITSRGGSTYYADSVKGRFTISRDNAKNTVYLQMNSLKPEDTAVYYCAKYQYYRSTDDYWGQGTQVTVSS | low polyreactivity
QVQLVESGGGLVQAGGSLRLSCDASGRTFGQNAMGWYRQAPGTERELVDAISASGSNTYYADSVKGRFTISRDNAKNTVYLQMNSLKPEDTAVYYCAKQVYRPGQQSRYDYWGQGTQVTVSS | low polyreactivity
QVQLVESVGVLVQAGGSLHLSCAASGSTFRYNAIGWYRQAPGKEREVVAAISKRGGSTYYADSVKGRFTISRDNAKNTVYLQMNSLKPEDTAVYYCAASYPSWSTRGESDYWGQGTQVTVSS | high polyreactivity
QVQLVESGGGLDQAGGSLRLSCAASGSIFDYYAMGWYRQAPGKERELVARISYSGGTTYYADSVKGRFTISRDNAKNTVYLQMNSLKPEDTAVYYCNARIPYSWRYGYWGQGTQVTVSS | high polyreactivity
QVQLQECGGGLEQAGGSLRLSCAASGTFSNSVKWLYCQARGKEREFVATIGVGGSTNYADSVKGRFTISRDNAKNTVYLQMNSLKPEDTAVYHCAAYGAASNFHYYRGQGTQVTVSS | low polyreactivity
QVQLVESGRRLVQAGGSLRLSCAASGRIFPGNAMGWYRQAPGKERELVAAMSYGGGSTYYADSVKGRFTISRDNAKNTVYLQMNSLKPEDTAVYYCAARYRGSRFDYWGQGTQVTVSS | high polyreactivity
QVQLVGSGGGLVQAGGSLRLSCAASGSTFGYYAMGWYRQAPGKERELVAAITKSGGSTFYADSVKGRFTISRDNAKNTVYLQMNSLKPEDTAVYYCAARYKGQYYRQGRHDFWGQGTQVTVSS | high polyreactivity
QVQLVESGGGLVQAGGSLRLAVLPPDLPSTLNDRGWYRQAPGKESELVAAITSGGNTYYADSVKGRFTISRDNAKNTVYLQMNSLKPEDTAVYYCAATYYWAWGGVYHSEFDYWGQGTQVTLSS | low polyreactivity
QVQLVESGGGFVQAGGSHRLSCAASGRIFSCNAMGWYRQAPGKERELVAAITWRGTSTYYADSVKGRFTISRDNAKNTVYLQMNSLKPEDTAVYYWNGDYYYPADGRHYHYDYWGQGTQVTVSS | low polyreactivity
QVQLVESRGGLVQAGGSLRLSCAASGSTSRTYAMGWYRQAPGKEMELVAAISSSGGRTYYADSVKGRFTISRDNAKNTVYLLMNSLKPEDTAVYYCNARTYSYRGYNYWGQGTQVTVSS | high polyreactivity
QVQIVESGGGLVQAGGSLRLSCAASGRSFYKYAMGWYRQAPGKERELVAAISKSGGRTYYADSVKGRFTISRDNAKNTVYLQMNSLKPEDTAVYYCAAEPFIPDQSRYYYWGQGTQVTVSS | high polyreactivity
QVQLVESGGGLVQAGGSLRLSCAASASIFSVYAMGWYRQAPGKERELVAAITRSGARTYYADSVKGRFTISRDNAKNTVYLQMNSLKPDDTAVYYCAADDPGYNQVEYWGQGTQVTVSS | high polyreactivity
QVQLVESGGGLVQARGSLRLSCAASGRTFGNYAMGWYRQSPGKERELVASINTGGSTSYADSVKGRFTISRDNAKNTVYFLMNSLKPEDTAVYYCARSFFWYRLHVYWGQGTQVTVSS | low polyreactivity
QVQLVESGGGLVQAGGSLRLSCAASGRIFGNNAMGWYRQAPGKERELVAAITSGGSTNYADSVKGRFTISRDNAKNTVYLQMNSLKPEDTAVYYCAKRWVYKYRHYDYWGQGTQVTVSS | low polyreactivity
QVQLVESGGGLVQAGGSLRLSCAASGRIFVPYAMGWYRQAPGKERELVAAISWNTGSTYYADSVKGRFTISRDNAKNTVYLQMNSLKPEDTAVYYCAAGSRVRYDGGYKINGYWGQGTQVTVSS | high polyreactivity
QVQLVESGGGIVQAGGSLRLSCAASGSIFDVYAMGWYRQAPGKERELVAAITWRGGNTYYADSVKGRFTISRDNAKNTVYLQMNSLKPEDTAVYYCNALHRIRYTPSSRYDYWGQGTQVTVSS | low polyreactivity

Sequence | polyreactivity (PSR sort gate)
QVQLVESGGGLVQAGGSLRLSCAASGSTFWGNAMGWYRQAPGKERELVAAIDWSGGRTYYADSVKGRFTISRDNAKNTVYLQMNSLKPEDTAVYYCATRAWRGYVPYDYWGQGTQVTVSS | high polyreactivity
QDQLVESGGGLVQAGGSLRLSCAASGRTFYYSAMGWSRQAPGKERELVATMSRGITNYADSVKGRFTISRDNAKNTVYLQMNSLKPEDTAVYYCAARDGWRSHFRGDYWGQGTQVTVSS | high polyreactivity
QVQLVESGGGLGQAGGSLRLSCAASGFTFGGNGMGWYRPAPGKERELVASISWGGGSTYYADSVKGRFRISRDKAKNTVYLQMNSLKREDTAVYDCNADRYYWSSRPTSWFNYWGQGTQVTVSS | high polyreactivity
QVQLVESGGGLVQAGGSLRLSCAASGSTFKIYAMGWYRQAPGKERELVAAITRSGGSTYYADSVKGRFTISRDNAKNTVYLQMNSLKPEDTAVYYCAASRFTSYGIDYDYWGQGTQVTVSS | high polyreactivity
QVQLVESGGGLVQAGGSLRLSCAASGRNFGRYAMGCYRQAPGKERELVAAITGRGASTYYADSVKGRFTISRDNAKHTVYLQMNSLKPEDTAVYYCNAFRGAQGTDAYDWGQGTQVPVSS | low polyreactivity
QVQLVESGGGLVQAGGSLRLSCAASGSTFKDNAMGWYIQAPGKERELVASITGRGGSTYYADSVKGRFTISRDNAKNTVYLHMNSLKPEDTAVYYCAARAYYGVYKSPYDYWGQGTQVTVSS | high polyreactivity
QVQLVESGGGLVQAGGSLRLSCAASGSIFRLYTMGWYRQAPGKERELVAAISQSGGRTYYADSVKGRFTISRDNAKNTVYLQMNSLNPEDTAVYYCNAVGPYRPYGGQGAPYDYWGQGTQVTVSS | high polyreactivity
QVQLVESGGGIVQAGGSLRLICDASGLIFTLYAMGWYRQAPGKETELVAAIDDGGRTYYADSVKGRFTISRDNAKNTVYLQMNSMIPEDTAVYYGAAVWLAVYSVWTDHHYDYWGQGTQVTVSS | low polyreactivity
QVQLVESGGGLVQAGGSLRLSCAASGRTFSYYAMGWYRQAPGKEREFVAAISSTGTSTYYADSVKGRFTISRDTAKNTVYLQKNSLKPEDTAVYYCNARLATYRLHSKFYYWGQGTQVTVSS | high polyreactivity
QVQLVESGGGLVQAGGSLRLSCAASGYTFGFYAMGWYRQAPGKERELVAAISSSGVSTSYADSVKGRFTISRDNAKNTVYLHMNSLKPEDNAVYYCNAPSYYYAYDYWGQGTQVTVSS | high polyreactivity
QVQNVDSGGVLVQAGGSLRLSCEASGRIRYYAMGWYRQAPGKERELVAAISSRGGSTYYADSVKGRFTISRDNAKNTVYLLLNSLKPEDTAVYYCAKGGYWGHGTQVTVSS | high polyreactivity
QVQLVESGGGLVQAGGSLRLSCAASGRTFRGYAMGWYRQAPGKERELVAAITWSGGRTYYADSVKGRFTISRDNAKNTVYLQMNSLKPEDTAVYYCATSPGRWGWGYDYEYWGQGTQVTVSS | low polyreactivity
QVQLVESGGGLVQAGGSLRLSCAASGRIFTGNVMGWYRQAPGKERELVAAITYRGGSTYYADSVKGRFTISRDNAKNTVYLQMHSLKPEDTAVYYCNTRWDPYGYDYWGQGTQVTVSS | low polyreactivity
QVQLVESGGGLVQAGGSLRLSCAASGFIFPHYTMGWYRPAPGKERELVAAISSSGGSTYYADSVKGRFTISRDNANNTVYLQMNSLKPEDTAVYYCAADWSITYGDGGYWGQGTQVTVSS | low polyreactivity
QVQLVESGGGLVQAGGSLRLSCAASGFTFGKYCMGWYRQAPGKERELVAAISASGGITYYADSVKGRFTISRDNAKNTVYLQMNSLKPEDTAVYYCAARRYEPKAVYYWGQGTQVTVSS | high polyreactivity
QVQLVESGGGLVQAGGSLRISCAASGRIFAGYSMGWYRQAPGKERELVAAIRTRGGSTYYADSVKGRFTISRDKAKNTVYLQMNSLKPEDTEVYYCAATPTWYIWYTYDYWGQGPQVTVSS | high polyreactivity
QVQLVESGGGLVQAGGSLRLSCAASGLIFVNAMGWYRQAPGKEREFVAAITYSTGSTYYADSVKGRFTISRDNAKNTVYLQMNRLKPEDTAVYYCAKDRSGHGTERDYWGQGTQVTVSS | low polyreactivity
QVQLGESGGGLVQAGGSLRLSCVASGFIFRGNAMGWYRQAPGKERELVATISSGGNTYYADSVKGRFTISRDNAKNTVYLQINSLKPEDTAVYYCNASDGLPTKLNVYVEFDYWGQGTQVTVSS | low polyreactivity
QVQLVESGGRLVQAGGSLRLSCAASGRTFGWYAMGWYRQAPGKERELVAAINRRVGRTYYADSVKGRFTISRDNAKNTVYLQMNSLIPEDTAVYYCAVKQGFYSRALKLYYWGQGTQVTVSS | high polyreactivity
QVQLIESGGGLVQAGGSLRLSCAASGRTFRRYAMGWYRQAPGKERELVAAIDASGGSTYYADSVMGRFTISRDTSKNTVYLQMTILKQEDSAVSYCNTCSGQLQLQGGRHEYWGQGTQVTVSS | high polyreactivity
QVQLVESGGGLVQAGGSLRFSCAASGDTFTSYAMGWYRQAPGKERELVAAISRRGGSTYYADSVKGRFTISRDNAKNTVYLQMNSLKPEDTAVYYCAAKSYSYTEFDYWGQGTQVTVSS | high polyreactivity
